Reference: patent publication US20240336672A1 (INSTITUT PASTEUR, published 2024)

B1: Cv2.1169 (recombinant human IgG1) (antibody)
heavy: QVQLVQSGPEVKKPGTSVKVSCKASGFTFTTSAVQWVRQARGQRLEWIGWIVVGSGNTNYAQKFQERVTITRDMSTTTAYMELSSLRSEDTAVYYCAAPYCSGGTCLDGFDIWGQGTMVTVSSASTKGPSVFPLAPSSKSTSGGTAALGCLVKDYFPEPVTVSWNSGALTSGVHTFPAVLQSSGLYSLSSVVTVPSSSLGTQTYICNVNHKPSNTKVDKKVEPKSCDKTHTCPPCPAPELLGGPSVFLFPPKPKDTLMISRTPEVTCVVVDVSHEDPEVKFNWYVDGVEVHNAKTKPREEQYNSTYRVVSVLTVLHQDWLNGKEYKCKVSNKALPAPIEKTISKAKQPREPQVYTLPPSRDELTKNQVSLTCLVKGFYPSDIAVEWESNGQPENNYKTTPPVLDSDGSFFLYSKLTVDKSRWQQGNVFSCSVMHEALHNHYTQKSLSLSPGK
light: not shown
notes: also called Cv2.1169 IgG
B2: Cv2.3194 (recombinant human IgG1) (antibody, V domains shown)
VH: EVQLVESGGGLIQPGGSLRLSCAASGITVTSNYMSWVRQAPGKGLEWVSVIYPGGSTFYADSVKGRFTISRDNSKNTLYLQMNSLRAEDTAVYYCARDLVVYGMDVWGQGTTVTVSS
VL: EIVLTQSPGTLSLSPGERATLSCRASQSVSSSYLAWYQQKPGQAPRLLIYGASSRATGIPGRFSGSGSGTDFTLTISRLEPEDFAIYYCQQGVTFGGGTKVEIKR

Tests used:
Assay in all cases: cell-based or functional assay
[1] = target: SARS-CoV-2 spike, Delta variant (B.1.617.2), on virus or pseudotyped particles (SARS-CoV-2)
[2] = target: SARS-CoV-2 spike, Beta variant (B.1.351), on virus or pseudotyped particles (SARS-CoV-2)
[3] = target: SARS-CoV-2 spike, Alpha variant (B.1.1.7), on virus or pseudotyped particles (SARS-CoV-2)
[4] = target: SARS-CoV-2 spike, Omicron BA.2 variant, on virus (SARS-CoV-2)
[5] = target: SARS-CoV-2 spike, Delta+ variant, on pseudotyped particles (SARS-CoV-2)
[6] = target: SARS-CoV-2 spike, Omicron BA.1 variant, on virus (SARS-CoV-2)

| Binder | S-Fuse IC50 [1] [µg/mL] | Pseudoneutralization IC50 [2] [µg/mL] | Pseudoneutralization IC90 [2] [µg/mL] | S-Fuse neutralization IC50 [2] [µg/mL] | S-Fuse neutralization IC90 [2] [µg/mL] | Pseudoneutralization IC50 [3] [µg/mL] | Pseudoneutralization IC90 [3] [µg/mL] | S-Fuse neutralization IC50 [3] [µg/mL] | S-Fuse neutralization IC90 [3] [µg/mL] | S-Fuse neutralization IC50 [4] [µg/mL] | S-Fuse neutralization IC90 [4] [µg/mL] | Pseudoneutralization IC50 [5] [µg/mL] | Pseudoneutralization IC90 [5] [µg/mL] | S-Fuse neutralization IC50 [6] [µg/mL] | S-Fuse neutralization IC90 [6] [µg/mL] |
| --- | --- | --- | --- | --- | --- | --- | --- | --- | --- | --- | --- | --- | --- | --- | --- |
| B1 | 0.00446 | 0.0142 | 0.0342 | 0.0023 | 0.0072 | 0.0055 | 0.024 | 0.0016 | 0.004 | 0.332 | 9.69 | 0.0036 | 0.0149 | 0.265 | 7.59 |
| B2 | – | 0.0343 | 0.119 | 0.0052 | 0.02 | 0.0347 | 0.132 | 0.0043 | 0.0054 | 0.0405 | 0.582 | 0.0206 | 0.089 | 0.0242 | 0.709 |
